Molecular target: full length T216A Mos1 transposase (Drosophila mauritiana)
Assay: crystal structure; Mos1 strand transfer complex (STC): T216A Mos1 transposase and strand transfer product DNA at 50 uM each in 25 mM PIPES-NaOH pH 7.5, 250 mM NaCl, 20 mM MgCl2, 1 mM DTT; sitting drop, 30% (v/v) MPD, 0.1 M sodium cacodylate pH 6.5, 0.2 M magnesium acetate; 3.3 Å; one STC in the asymmetric unit

- stoichiometry N: 2
Substance: full length T216A Mos1 transposase (enzyme)
